Results reported in article PMC6109178.

Experiments:
[1] = target: Mouse P-gp-ECL1&4-h18 (mouse) (UniProt P21447); assay: flow cytometry on cells; apparent Kd; HeLa cells expressing the P-gp variant (300,000 cells/assay) stained with UIC2 at 0.01 to 3 µg per 100,000 cells for 30 min at 37 °C; GraphPad Prism
[2] = target: Mouse P-gp-ECL13&4-h19 (mouse) (UniProt P21447); assay: as above
[3] = target: Mouse P-gp-ECL1&4-h18 (mouse) (UniProt P21447); assay: flow cytometry on cells; UIC2 shift assay: HeLa cells incubated 5 min at 37 °C with DMSO or 20 µM cyclosporine A before UIC2 at saturated concentration (3 µg/100,000 cells), 30 min; FITC-labeled anti-mouse secondary antibody
[4] = target: Mouse P-gp-ECL13&4-h19 (mouse) (UniProt P21447); assay: as above

Kd [1]: 11.7 nM
Kd [2]: 5.1 nM
fold increase of UIC2 binding after 20 µM cyclosporine A against DMSO [3]: 1.4 to 1.7 fold
fold increase of UIC2 binding after 20 µM cyclosporine A against DMSO [4]: 1.2 to 1.4 fold
Substance: UIC2 monoclonal antibody
